Numbered stars: 1 amine (or outer) side, 2 acyl side, 3 side chain; on linkers, the order of the positions; unused ones are H or OH. Side chains are listed from the residue outwards. Ends that are not written are not given here. * marks the point of attachment. γGlu = O=C(O)[C@H](CCC(=O)[*:2])N[*:1]; Palmitoyl = CCCCCCCCCCCCCCCC(=O)*; Ahx = NCCCCCC(=O)O; βAla = NCCC(=O)O
What was measured:
Assay in all cases: cell-based or functional assay
[1] = biological target: T1, human glucose-dependent insulinotropic peptide (gastric inhibitory polypeptide) receptor (human) (UniProt P48546)
T1 sequence (looked up): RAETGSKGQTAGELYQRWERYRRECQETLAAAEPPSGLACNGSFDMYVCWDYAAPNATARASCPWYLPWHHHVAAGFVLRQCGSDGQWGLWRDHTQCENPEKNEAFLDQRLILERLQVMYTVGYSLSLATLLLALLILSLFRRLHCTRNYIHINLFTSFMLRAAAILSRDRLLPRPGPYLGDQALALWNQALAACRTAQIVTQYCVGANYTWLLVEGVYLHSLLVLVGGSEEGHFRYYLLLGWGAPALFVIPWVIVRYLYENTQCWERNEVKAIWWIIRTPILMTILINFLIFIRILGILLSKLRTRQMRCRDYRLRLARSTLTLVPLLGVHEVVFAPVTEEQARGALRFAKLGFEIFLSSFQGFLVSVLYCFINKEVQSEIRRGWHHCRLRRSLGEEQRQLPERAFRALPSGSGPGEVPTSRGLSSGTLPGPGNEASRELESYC

human GLP-1 receptor = human GLP-1 receptor (human, UniProt P43220 24-463)
Chain of human GLP-1 receptor (P43220 24-463): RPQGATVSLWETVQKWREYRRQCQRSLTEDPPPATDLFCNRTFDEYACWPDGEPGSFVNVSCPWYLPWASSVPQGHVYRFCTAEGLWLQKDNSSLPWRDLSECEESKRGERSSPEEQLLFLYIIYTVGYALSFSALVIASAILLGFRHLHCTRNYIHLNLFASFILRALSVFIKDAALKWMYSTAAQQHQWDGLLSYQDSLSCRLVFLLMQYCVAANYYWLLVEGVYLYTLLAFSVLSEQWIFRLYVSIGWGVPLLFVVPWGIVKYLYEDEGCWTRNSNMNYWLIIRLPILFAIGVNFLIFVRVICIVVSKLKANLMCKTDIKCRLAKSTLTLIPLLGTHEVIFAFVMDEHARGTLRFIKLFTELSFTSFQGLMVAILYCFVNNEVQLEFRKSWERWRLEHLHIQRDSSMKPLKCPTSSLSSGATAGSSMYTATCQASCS

human glucagon receptor = human glucagon receptor (human, UniProt P47871 26-477)
Chain of human glucagon receptor (P47871 26-477): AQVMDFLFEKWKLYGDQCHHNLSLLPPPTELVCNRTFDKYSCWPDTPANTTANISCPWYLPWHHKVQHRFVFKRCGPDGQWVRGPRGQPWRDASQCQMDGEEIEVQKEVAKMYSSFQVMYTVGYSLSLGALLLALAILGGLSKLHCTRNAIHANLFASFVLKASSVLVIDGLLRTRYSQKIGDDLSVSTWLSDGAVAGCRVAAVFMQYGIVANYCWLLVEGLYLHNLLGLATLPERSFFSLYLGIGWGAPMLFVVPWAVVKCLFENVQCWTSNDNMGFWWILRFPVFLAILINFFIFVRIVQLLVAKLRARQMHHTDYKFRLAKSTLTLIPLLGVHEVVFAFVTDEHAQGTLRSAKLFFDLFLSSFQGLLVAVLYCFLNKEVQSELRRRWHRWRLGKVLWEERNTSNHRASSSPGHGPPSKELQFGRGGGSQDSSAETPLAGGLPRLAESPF

B1: g782 (peptide)
peptide: HSQGTFTSDYSKYLDSRK([γGlu-Palmitoyl])ARDFVAWLEAGG-NH2
modifications: N-terminus assumed
SMILES: CCCCCCCCCCCCCCCC(=O)N[C@@H](CCC(=O)NCCCC[C@H](NC(=O)[C@H](CCCNC(=N)N)NC(=O)[C@H](CO)NC(=O)[C@H](CC(=O)O)NC(=O)[C@H](CC(C)C)NC(=O)[C@H](Cc1ccc(O)cc1)NC(=O)[C@H](CCCCN)NC(=O)[C@H](CO)NC(=O)[C@H](Cc1ccc(O)cc1)NC(=O)[C@H](CC(=O)O)NC(=O)[C@H](CO)NC(=O)[C@@H](NC(=O)[C@H](Cc1ccccc1)NC(=O)[C@@H](NC(=O)CNC(=O)[C@H](CCC(N)=O)NC(=O)[C@H](CO)NC(=O)[C@@H](N)Cc1c[nH]cn1)[C@@H](C)O)[C@@H](C)O)C(=O)N[C@@H](C)C(=O)N[C@@H](CCCNC(=N)N)C(=O)N[C@@H](CC(=O)O)C(=O)N[C@@H](Cc1ccccc1)C(=O)N[C@H](C(=O)N[C@@H](C)C(=O)N[C@@H](Cc1c[nH]c2ccccc12)C(=O)N[C@@H](CC(C)C)C(=O)N[C@@H](CCC(=O)O)C(=O)N[C@@H](C)C(=O)NCC(=O)NCC(N)=O)C(C)C)C(=O)O
Q: B1 was tested. Which cAMP EC50 (assay 1) [1] did it give?
A: 1430 nM

Q: And the cAMP EC50 (assay 1) (human GLP-1 receptor)?
A: 0.0254 nM

Q: And the cAMP EC50 (assay 1) (human glucagon receptor)?
A: 0.156 nM

B2: g747 (peptide)
peptide: HSQGTFTSDYSKYLDSRRAQDFVQWLEAGGK([γGlu-Palmitoyl])-NH2
modifications: N-terminus assumed
SMILES: CCCCCCCCCCCCCCCC(=O)N[C@@H](CCC(=O)NCCCC[C@H](NC(=O)CNC(=O)CNC(=O)[C@H](C)NC(=O)[C@H](CCC(=O)O)NC(=O)[C@H](CC(C)C)NC(=O)[C@H](Cc1c[nH]c2ccccc12)NC(=O)[C@H](CCC(N)=O)NC(=O)[C@@H](NC(=O)[C@H](Cc1ccccc1)NC(=O)[C@H](CC(=O)O)NC(=O)[C@H](CCC(N)=O)NC(=O)[C@H](C)NC(=O)[C@H](CCCNC(=N)N)NC(=O)[C@H](CCCNC(=N)N)NC(=O)[C@H](CO)NC(=O)[C@H](CC(=O)O)NC(=O)[C@H](CC(C)C)NC(=O)[C@H](Cc1ccc(O)cc1)NC(=O)[C@H](CCCCN)NC(=O)[C@H](CO)NC(=O)[C@H](Cc1ccc(O)cc1)NC(=O)[C@H](CC(=O)O)NC(=O)[C@H](CO)NC(=O)[C@@H](NC(=O)[C@H](Cc1ccccc1)NC(=O)[C@@H](NC(=O)CNC(=O)[C@H](CCC(N)=O)NC(=O)[C@H](CO)NC(=O)[C@@H](N)Cc1c[nH]cn1)[C@@H](C)O)[C@@H](C)O)C(C)C)C(N)=O)C(=O)O
Q: With B2 as the binder, how does the cAMP EC50 (assay 1) [1] read?
A: 1040 nM

Q: And the cAMP EC50 (assay 1) (human GLP-1 receptor)?
A: 3.16 nM

Q: And the cAMP EC50 (assay 1) (human glucagon receptor)?
A: 0.0942 nM

B3: g512 (peptide)
peptide: HGQGTFTSDYSKYLDSK([γGlu-Palmitoyl])RAQDFVQWLEAGG-NH2
modifications: N-terminus assumed
SMILES: CCCCCCCCCCCCCCCC(=O)N[C@@H](CCC(=O)NCCCC[C@H](NC(=O)[C@H](CO)NC(=O)[C@H](CC(=O)O)NC(=O)[C@H](CC(C)C)NC(=O)[C@H](Cc1ccc(O)cc1)NC(=O)[C@H](CCCCN)NC(=O)[C@H](CO)NC(=O)[C@H](Cc1ccc(O)cc1)NC(=O)[C@H](CC(=O)O)NC(=O)[C@H](CO)NC(=O)[C@@H](NC(=O)[C@H](Cc1ccccc1)NC(=O)[C@@H](NC(=O)CNC(=O)[C@H](CCC(N)=O)NC(=O)CNC(=O)[C@@H](N)Cc1c[nH]cn1)[C@@H](C)O)[C@@H](C)O)C(=O)N[C@@H](CCCNC(=N)N)C(=O)N[C@@H](C)C(=O)N[C@@H](CCC(N)=O)C(=O)N[C@@H](CC(=O)O)C(=O)N[C@@H](Cc1ccccc1)C(=O)N[C@H](C(=O)N[C@@H](CCC(N)=O)C(=O)N[C@@H](Cc1c[nH]c2ccccc12)C(=O)N[C@@H](CC(C)C)C(=O)N[C@@H](CCC(=O)O)C(=O)N[C@@H](C)C(=O)NCC(=O)NCC(N)=O)C(C)C)C(=O)O
Q: Which results are given for B3?
A: cAMP EC50 (assay 1) [1]: 407 nM; cAMP EC50 (assay 1) (human GLP-1 receptor): 0.098 nM; cAMP EC50 (assay 1) (human glucagon receptor): 0.0606 nM

B4: g513 (peptide)
peptide: HSEGTFTSDYSKYLDSK([γGlu-Palmitoyl])RAQDFVQWLEAGG-NH2
modifications: N-terminus assumed
SMILES: CCCCCCCCCCCCCCCC(=O)N[C@@H](CCC(=O)NCCCC[C@H](NC(=O)[C@H](CO)NC(=O)[C@H](CC(=O)O)NC(=O)[C@H](CC(C)C)NC(=O)[C@H](Cc1ccc(O)cc1)NC(=O)[C@H](CCCCN)NC(=O)[C@H](CO)NC(=O)[C@H](Cc1ccc(O)cc1)NC(=O)[C@H](CC(=O)O)NC(=O)[C@H](CO)NC(=O)[C@@H](NC(=O)[C@H](Cc1ccccc1)NC(=O)[C@@H](NC(=O)CNC(=O)[C@H](CCC(=O)O)NC(=O)[C@H](CO)NC(=O)[C@@H](N)Cc1c[nH]cn1)[C@@H](C)O)[C@@H](C)O)C(=O)N[C@@H](CCCNC(=N)N)C(=O)N[C@@H](C)C(=O)N[C@@H](CCC(N)=O)C(=O)N[C@@H](CC(=O)O)C(=O)N[C@@H](Cc1ccccc1)C(=O)N[C@H](C(=O)N[C@@H](CCC(N)=O)C(=O)N[C@@H](Cc1c[nH]c2ccccc12)C(=O)N[C@@H](CC(C)C)C(=O)N[C@@H](CCC(=O)O)C(=O)N[C@@H](C)C(=O)NCC(=O)NCC(N)=O)C(C)C)C(=O)O
Q: With B4 as the binder, how does the cAMP EC50 (assay 1) [1] read?
A: 298 nM

Q: And the cAMP EC50 (assay 1) (human GLP-1 receptor)?
A: 0.175 nM

Q: And the cAMP EC50 (assay 1) (human glucagon receptor)?
A: 0.723 nM

B5: g734 (peptide)
peptide: HSEGTFTSDYSEYLDSK([βAla-Palmitoyl])RARDFVAWLEAGG-NH2
modifications: N-terminus assumed
SMILES: CCCCCCCCCCCCCCCC(=O)NCCC(=O)NCCCC[C@H](NC(=O)[C@H](CO)NC(=O)[C@H](CC(=O)O)NC(=O)[C@H](CC(C)C)NC(=O)[C@H](Cc1ccc(O)cc1)NC(=O)[C@H](CCC(=O)O)NC(=O)[C@H](CO)NC(=O)[C@H](Cc1ccc(O)cc1)NC(=O)[C@H](CC(=O)O)NC(=O)[C@H](CO)NC(=O)[C@@H](NC(=O)[C@H](Cc1ccccc1)NC(=O)[C@@H](NC(=O)CNC(=O)[C@H](CCC(=O)O)NC(=O)[C@H](CO)NC(=O)[C@@H](N)Cc1c[nH]cn1)[C@@H](C)O)[C@@H](C)O)C(=O)N[C@@H](CCCNC(=N)N)C(=O)N[C@@H](C)C(=O)N[C@@H](CCCNC(=N)N)C(=O)N[C@@H](CC(=O)O)C(=O)N[C@@H](Cc1ccccc1)C(=O)N[C@H](C(=O)N[C@@H](C)C(=O)N[C@@H](Cc1c[nH]c2ccccc12)C(=O)N[C@@H](CC(C)C)C(=O)N[C@@H](CCC(=O)O)C(=O)N[C@@H](C)C(=O)NCC(=O)NCC(N)=O)C(C)C
Q: With B5 as the binder, how does the cAMP EC50 (assay 1) [1] read?
A: 1170 nM

Q: What about the cAMP EC50 (assay 1) (human GLP-1 receptor) of the same binder?
A: 0.0695 nM

Q: And the cAMP EC50 (assay 1) (human glucagon receptor)?
A: 82.8 nM

B6: g837 (peptide)
peptide: HSQGTFTSDYSEYLDSK([γGlu-Palmitoyl])RARDFVAWLEAGG-NH2
modifications: N-terminus assumed
SMILES: CCCCCCCCCCCCCCCC(=O)N[C@@H](CCC(=O)NCCCC[C@H](NC(=O)[C@H](CO)NC(=O)[C@H](CC(=O)O)NC(=O)[C@H](CC(C)C)NC(=O)[C@H](Cc1ccc(O)cc1)NC(=O)[C@H](CCC(=O)O)NC(=O)[C@H](CO)NC(=O)[C@H](Cc1ccc(O)cc1)NC(=O)[C@H](CC(=O)O)NC(=O)[C@H](CO)NC(=O)[C@@H](NC(=O)[C@H](Cc1ccccc1)NC(=O)[C@@H](NC(=O)CNC(=O)[C@H](CCC(N)=O)NC(=O)[C@H](CO)NC(=O)[C@@H](N)Cc1c[nH]cn1)[C@@H](C)O)[C@@H](C)O)C(=O)N[C@@H](CCCNC(=N)N)C(=O)N[C@@H](C)C(=O)N[C@@H](CCCNC(=N)N)C(=O)N[C@@H](CC(=O)O)C(=O)N[C@@H](Cc1ccccc1)C(=O)N[C@H](C(=O)N[C@@H](C)C(=O)N[C@@H](Cc1c[nH]c2ccccc12)C(=O)N[C@@H](CC(C)C)C(=O)N[C@@H](CCC(=O)O)C(=O)N[C@@H](C)C(=O)NCC(=O)NCC(N)=O)C(C)C)C(=O)O
Q: Which results are given for B6?
A: cAMP EC50 (assay 1) [1]: 114 nM; cAMP EC50 (assay 1) (human GLP-1 receptor): 0.467 nM; cAMP EC50 (assay 1) (human glucagon receptor): 0.213 nM

B7: g838 (peptide)
peptide: HSQGTFTSDYSEYLDSK([Ahx-Palmitoyl])RARDFVAWLEAGG-NH2
modifications: N-terminus assumed
SMILES: CCCCCCCCCCCCCCCC(=O)NCCCCCC(=O)NCCCC[C@H](NC(=O)[C@H](CO)NC(=O)[C@H](CC(=O)O)NC(=O)[C@H](CC(C)C)NC(=O)[C@H](Cc1ccc(O)cc1)NC(=O)[C@H](CCC(=O)O)NC(=O)[C@H](CO)NC(=O)[C@H](Cc1ccc(O)cc1)NC(=O)[C@H](CC(=O)O)NC(=O)[C@H](CO)NC(=O)[C@@H](NC(=O)[C@H](Cc1ccccc1)NC(=O)[C@@H](NC(=O)CNC(=O)[C@H](CCC(N)=O)NC(=O)[C@H](CO)NC(=O)[C@@H](N)Cc1c[nH]cn1)[C@@H](C)O)[C@@H](C)O)C(=O)N[C@@H](CCCNC(=N)N)C(=O)N[C@@H](C)C(=O)N[C@@H](CCCNC(=N)N)C(=O)N[C@@H](CC(=O)O)C(=O)N[C@@H](Cc1ccccc1)C(=O)N[C@H](C(=O)N[C@@H](C)C(=O)N[C@@H](Cc1c[nH]c2ccccc12)C(=O)N[C@@H](CC(C)C)C(=O)N[C@@H](CCC(=O)O)C(=O)N[C@@H](C)C(=O)NCC(=O)NCC(N)=O)C(C)C
Q: For B7, which cAMP EC50 (assay 1) [1] is on record?
A: 84.3 nM

Q: What about the cAMP EC50 (assay 1) (human GLP-1 receptor) of the same binder?
A: 0.0237 nM

Q: And the cAMP EC50 (assay 1) (human glucagon receptor)?
A: 0.00568 nM
